Patent US20200254053A1
No end group written: not given here. dPEG24 = 24 PEG moieties

Biological target: C1q as present in the human serum or plasma of the hemolytic assays (human) (UniProt P02745)
Assay: cell-based or functional assay

Sequence of UniProt P02745 (P02745 23-245 limits assumed, chain 1 of 3): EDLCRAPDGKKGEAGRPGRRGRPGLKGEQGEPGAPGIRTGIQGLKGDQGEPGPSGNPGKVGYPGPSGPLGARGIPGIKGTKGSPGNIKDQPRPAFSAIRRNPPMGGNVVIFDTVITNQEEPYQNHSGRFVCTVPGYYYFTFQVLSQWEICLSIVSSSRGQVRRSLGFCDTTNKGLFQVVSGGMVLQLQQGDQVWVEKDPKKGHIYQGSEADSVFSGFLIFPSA
Sequence of UniProt P02745 (P02746 28-253 limits assumed, chain 2 of 3, further chain): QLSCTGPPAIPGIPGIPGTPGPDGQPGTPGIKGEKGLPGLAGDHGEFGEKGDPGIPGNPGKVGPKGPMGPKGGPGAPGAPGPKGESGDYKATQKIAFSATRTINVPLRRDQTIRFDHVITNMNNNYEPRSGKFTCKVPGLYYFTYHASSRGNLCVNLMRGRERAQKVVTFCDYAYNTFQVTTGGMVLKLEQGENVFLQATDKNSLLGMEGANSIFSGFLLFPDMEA
Sequence of UniProt P02745 (P02747 29-245 limits assumed, chain 3 of 3, further chain): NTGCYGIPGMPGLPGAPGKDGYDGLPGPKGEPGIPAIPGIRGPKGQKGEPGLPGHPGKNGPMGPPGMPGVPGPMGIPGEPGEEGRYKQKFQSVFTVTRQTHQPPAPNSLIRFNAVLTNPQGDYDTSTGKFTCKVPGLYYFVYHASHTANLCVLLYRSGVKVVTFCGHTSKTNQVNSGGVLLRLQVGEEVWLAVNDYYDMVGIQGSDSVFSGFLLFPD

Binder: IALILEPICCQERAA-dPEG24 (cysteine pairing not given here) [PA-dPEG24]
- Hemolysis in presence of PA-dPEG24 (Abs 412 nm), type-O donor #1 plasma with B+ erythrocytes (0.747 without peptide): 0.008 Abs 412 nm
- inhibition of hemolysis, type-O plasma with type-B erythrocytes, dose response (FIG. 8): > 95%
